In US20150086555A1 (THERACLONE SCIENCES, published 2015):
Where a chain is given by its changes, count along the chain named.

B1: TCN-536 (5095_N01) (antibody, V domains shown)
VH: QVQLQQWGAGLLKPSETLSLTCAVYGGSFSVSGYYWSWIRQPPGRGLEWIGEISHGGSTNYNPSLKSRVTISVDTTKNQFSLRLSSVTAADTAVYYCARGTDPDTEVYCRVGNCAAFDYWGQGSLVTVSS
VL: EIILAQSPGTLSLSPGERATLSCRASQFVSTRSLAWYQQRPGQAPRLLIYGASSRATGIPDRFSGSGSGTDFTLTISRLEPEDFAVYYCQHYGYSPRYAFGQGSKVEIK
B2: TCN-526 (5084_C17) (antibody, V domains shown)
VH: EVLMVESGGGLVQPGGSVRLSCVASGFSFSSHWMTWVRQAPGKGLEWVANIEDDGGDKYYVDSVKGRFIISRDNAKNSVYLQMNSLRAEDTAVYFCARGSGSSDRSDYDPHYYYYLDVWGKGATVTVSS
VL: DIQLTQSPSSLSASVGDRVTITCRASQSISRYLNWYQQKPGKAPKLLLFAASTLLDGVPSRFSGSGSGTDFTLTISSLQPEDFATYYCQRNHSPSWTFGQGTRVEIK
B3: TCN-535 (5246_P19) (antibody, V domains shown)
VH: QVQLVQSGSEVKKPGTSVKVSCTASGSVFTNYGISWVRQAPGQGLEWMGGIIPLFGAAKYAQKFQGRVTITADESTKTVYMELSRLTSKDTAIYFCAKAPRVYEYYFDQWGQGTPVTVSS
VL: EIVLTQSPGTLSLSPGERATLSCRASQSVSSSQLAWYQQKPGQAPRLIIYGASTRATGIPDRFSGSGSGTDFTLTIGRLEPEDFAVFFCQQYSTSPPTFGQGTKVDFK
B4: TCN-527 (5086_C06) (antibody, V domains shown)
VH: QVQLQESGPGLVKPSETLSLNCAVSGGSISNYYWSWIRQPPGKGLEWIGYISYNGRPKYNPSLTSRVTISVDTSKDQFSLELRSVTAADTALYYCARETRFGELLSPYDAFEIWGQGTMVTVSS
VL: DIQMTQSPSSLSASVGDRVTMTCRASQNIRSYLNWYQQRPGTAPKLLIYAASTLHSGVPSRFSGGGSGTDFTLTINNLQPEDFASYYCQQSYDNPQTFGQGTKVEIK
B5: TCN-530 (5248_H10a) (antibody, V domains shown)
VH: QVQLVQSGAEVRKPGSSVKVSCKASGGPFMSYAIGWVRQAPGQGLEWMGGINPVFGRPHYAQKFQGRVTIATDDSTKTSYMELSSLTSEDTGMYYCASRYSRSSPGTFESWGQGTLVTVSS
VL: EIVMTQFPATLSVSPGERVTLSCRASQSVSNNLAWYQQKPGQPPRLLIYDASTRATGVPAKFSGTGSGTEFTLSISSLQSEDFAVYYCQQYHNWPPSYSFGLGTKLEIK
B6: TCN-528 (5087_P17) (antibody, V domains shown)
VH: QVQLVQSGSEVKKPGASVKVSCKASGYTFTNYDINWIRQAPGQGLEWMGWINPNSGTTGSAQRFQGRVTITVDTSITTVYMELSSLRSDDTAIYYCARGRELLRLQHFLTDSQSERRDCFDPWGQGTLVTVSS
VL: DIQMTQSPSSLSASVGDRVTITCRANQDIGIYLNWYQQNPGKVPKLLLHGASSLQGGVPSRFSASGSGTDFTLTIHSLQPEDLATYYCQQSRRLPYTFGQGTRVELK
B7: TCN-521 (3280_D18) (antibody, V domains shown)
VH: EVQLVQSGGGLVQPGGSLRLACVVSGFTVTSNYITWVRQAPGKGLEWVSVIYSHGRAYYSASVNGRFTISRHTSKNTVYLEMNSLRPEDTAVYYCAGGGLVGGYDEYFFDYWGQGTLATVSS
VL: ETVLTQSPGTLSLTPGERATLSCRVGQSVSGSHLAWYQQKPGQAPRLLIYGASSRATGIPDRFGGSVSGTDFTLTISRLEPEDSAVYYCQQYGDSRYTFGQGTKLEIK
B8: TCN-534 (5249_B02) (antibody, V domains shown)
VH: QVQLVQSGAEVKKPGSSVKVSCRESGGTFNGYTITWVRQAPGQGLEWMGGIIPMMGTVNYAQKLQGRVTITTDYFTKTAYMDLNNLRSEDTAMYYCVKIRYTGQQLLWGQGTLVTVSS
VL: DIQMTQSPSTLSASIGDRVTITCRASQSIASWLAWYQQKPGKAPKLLIYEAVNLESGVPSRFSGSGSGTDFTLTISSLQPDDFATYFCQHYGTISQTFGGGTKVEIK
B9: TCN-531 (5091_H13) (antibody, V domains shown)
VH: EVQLVESGGDLVQPGRSLKLSCTGSGFTFGDYGVTWVRQAPGKGLEWVGFIRTRPWGGTADTAASVKGRFTISRDDSKSLAYLQMNSLKTEDTAVYYCCRDAPPNVEVASMTNWYFDLWGRGTLVTVSS
VL: DIQLTQSPSSLSASVGDRVTITCRASQGILNCLAWYQQKPGKVPNLLMYAASTLQSGVPSRFSGSGFGTDFTLTISSLQPEDVATYYCQTYGGVSTFGGGTKVEIR
B10: TCN-539 (5056_A08) (antibody, V domains shown)
VH: QVQLVESGGGVVQPGRSLRLSCAASEITFITYAMHWVRQAPGKGLEWVALISDDGSNKFYADSVKGRFTISRDNSKNTLYLQMNSLRAEDTAAYYCAREGVYFDSGTYRGYFDYWGQETLVTVSS
VL: EIVLTQSPATLSLSPGERATLSCRASQSVSSYLAWYQQKPGQAPRLLIYDASNRATGIPARFSGSGSGTDFTLTISSLEPEDFAVYYCQQRSHWPPITFGQGTRLEIK
B11: TCN-555 (5246_L16) (antibody, V domains shown)
VH: QVQLVQSGAEVKRPGSSVKVSCTASGGIFRKNAISWVRQAPGQGLEWMGGIIAVFNTANYAQKFQNRVKITADESGNTAYMELSSLTSDDTAVYYCASHPKYFYGSGSYPDFWGQGTLVTVSS
VL: QSALTQPRSVSGSPGQSITISCTGGSSDIGASNSVSWYQQHPGKAPKLVIFDVTERPSGVPHRFSGSKSGNTASLTVSGLQPDDEADYFCCAYGGKYLVVFGGGTKVTVL
B12: TCN-563 (5237_B21) (antibody, V domains shown)
VH: B11 VH with V5A, N66G, T87R
VL: B11 VL with I18V, G25S, I29V, F51Y, D83E
B13: TCN-564 (5256_A17b) (antibody, V domains shown)
VH: QVQLVQSGADVKKPGSSVTVSCKASGGSFSNYGINWVRQAPGQGLEWMGGIIPLINAPNYAPKFQGRVTITADMFSNIVSLQLTSLRTDDTAVYYCARRKMTTAIDYWGQGTLVTVSS
VL: QPVLSQPPSASASLGASVTLTCTLSSGFDNYQVAWYQQRPGKGPRFVMRVGNGGNVASKGDGIPDRFSVSGSGLNRYLTIKNIQEDDESDYYCGADHGSGNNFVSPYVFGGGTKLTVL
B14: TCN-533 (5256_A17a) (antibody, V domains shown)
VH: B13 VH
VL: QPVLTQPPSASASLGASVTLTCTLSSAYSNYKVDWYQQRPGKGPRFVMRVGTGGIVGSKGDGIPDRFSVLGSGLNRYLTIKNIQEEDESDYHCGADHGSGSNFVSPYVFGGGTKLTVL
B15: TCN-560 (5084_P10) (antibody, V domains shown)
VH: EVQLVESGGGLVQPGGSLRLSCAASGFIFRNYWMSWVRQAPGKGLEWVANIKQDGREKYYVDSLRGRVNISRDNAENSLYLHMNSLRVEDTAVYFCARARMVVVTGDGFDVWGHGTMVTVSS
VL: DIQMTQSPSSLSASVGDRVTITCRASQNIKRYFNWYQQKPGKAPKLLIYAASNLENGVPSRFSGSGSGTDFTLTISSLQPEDFATYYCQQSFSKSWTFGQGTNVDIK
B16: TCN-540 (5060_F05) (antibody, V domains shown)
VH: QVQLVQSGGGVVQPGRSLRLSCAASGFTFSSYAMHWVRQAPGKGLEWVAIISYDGNDQYYTDSVKGRFTISRDSSKVYLQMHRLRPEDTAVYYCAKEFETSGYFHGSFDYWGQGILVTVSS
VL: QSALTQPASVSGSPGQSITISCTGTSSDVGGYNYVSWYQQHPGKAPKLLIYEVTNWPSGVSNRFSGSKSGNTASLTISGLQAEDEADYYCSSYAGSSTWVFGGGTRVTVL

target: hemagglutinin (HA) of influenza A/Japan/305/57 (H2N2) on whole virions (Influenza A virus A/Japan/305/1957(H2N2), UniProt P03451 16-562); experiment: ELISA; BCC supernatant on coated inactivated whole virions

Row | Binder | ELISA virus binding (OD450)
1 | B1 | 0.08
2 | B2 | 0.07
3 | B3 | 1.46
4 | B4 | 1.48
5 | B5 | 1.73
6 | B6 | 2.82
7 | B7 | 3.1
8 | B8 | 2.56
9 | B9 | 0.67
10 | B10 | 0.06
11 | B11 | 0.6
12 | B12 | 1.23
13 | B13 | 1.1
14 | B14 | 1.1
15 | B15 | 2.07
16 | B16 | 3.62
